# Numbering of substitutions follows the chain as printed. Names and notes keep the numbering of the source.
# B1: Anti-PSMA wt sdAb.6his (VHH)
# VHH: EVQLVESGGGLVQPGGSLTLSCAASRFMISEYSMHWVRQAPGKGLEWVSTINPAGTTDYAESVKGRFTISRDNAKNTLYLQMNSLKPEDTAVYYCDGYGYRGQGTQVTVSS
# notes: Tested as supernatant of Expi293 cells; also called parental sdAb; parental anti-PSMA single domain antibody
# B2: anti-PSMA S33H G97SsdAb.6his (VHH)
# VHH: B1 VHH with S33H, G97S
# B3: anti-PSMA T56Q sdAb.6his (VHH)
# VHH: B1 VHH with T56Q
# B4: anti-PSMA S33H T50D G97SsdAb.6his (VHH)
# VHH: B1 VHH with S33H, T50D, G97S
# B5: anti-PSMA G55K sdAb.6his (VHH)
# VHH: B1 VHH with G55K
# B6: anti-PSMA E31P sdAb.6his (VHH)
# VHH: B1 VHH with E31P
# B7: CSA (other, cynomolgus, UniProt A2V9Z4 25-608, looked up)
# chain: DTHKSEVAHRFKDLGEEHFKGLVLVAFSQYLQQCPFEEHVKLVNEVTEFAKTCVADESAENCDKSLHTLFGDKLCTVATLRETYGEMADCCAKQEPERNECFLQHKDDNPNLPPLVRPEVDVMCTAFHDNEATFLKKYLYEVARRHPYFYAPELLFFAARYKAAFAECCQAADKAACLLPKLDELRDEGKASSAKQRLKCASLQKFGDRAFKAWAVARLSQKFPKAEFAEVSKLVTDLTKVHTECCHGDLLECADDRADLAKYMCENQDSISSKLKECCDKPLLEKSHCLAEVENDEMPADLPSLAADYVESKDVCKNYAEAKDVFLGMFLYEYARRHPDYSVMLLLRLAKAYEATLEKCCAAADPHECYAKVFDEFQPLVEEPQNLVKQNCELFEQLGEYKFQNALLVRYTKKVPQVSTPTLVEVSRNLGKVGAKCCKLPEAKRMPCAEDYLSVVLNRLCVLHEKTPVSEKVTKCCTESLVNRRPCFSALELDEAYVPKAFNAETFTFHADMCTLSEKEKQVKKQTALVELVKHKPKATKEQLKGVMDNFAAFVEKCCKADDKEACFAEEGPKFVAASQAALA
# notes: also called cynomolgus serum albumin
# B8: cynomolgus CD3 (receptor, UniProt Q95LI5 22-117, looked up)
# chain: QDGNEEMGSITQTPYQVSISGTTVILTCSQHLGSEAQWQHNGKNKEDSGDRLFLPEFSEMEQSGYYVCYPRGSNPEDASHHLYLKARVCENCMEMD
# notes: The methods describe only the human CD3-Flag-Fc format; also called cyno CD3e
# B9: cynomolgus PSMA (other)
# chain: KSSSEATNITPKHNMKAFLDELKAENIKKFLHNFTQIPHLAGTEQNFQLAKQIQSQWKEFGLDSVELTHYDVLLSYPNKTHPNYISIINEDGNEIFNTSLFEPPPAGYENVSDIVPPFSAFSPQGMPEGDLVYVNYARTEDFFKLERDMKINCSGKIVIARYGKVFRGNKVKNAQLAGATGVILYSDPADYFAPGVKSYPDGWNLPGGGVQRGNILNLNGAGDPLTPGYPANEYAYRRGIAEAVGLPSIPVHPIGYYDAQKLLEKMGGSASPDSSWRGSLKVPYNVGPGFTGNFSTQKVKMHIHSTSEVTRIYNVIGTLRGAVEPDRYVILGGHRDSWVFGGIDPQSGAAVVHEIVRSFGTLKKEGWRPRRTILFASWDAEEFGLLGSTEWAEENSRLLQERGVAYINADSSIEGNYTLRVDCTPLMYSLVYNLTKELESPDEGFEGKSLYESWTKKSPSPEFSGMPRISKLGSGNDFEVFFQRLGIASGRARYTKNWETNKFSSYPLYHSVYETYELVEKFYDPMFKYHLTVAQVRGGMVFELANSVVLPFDCRDYAVVLRKYADKIYNISMKHPQEMKTYSVSFDSLFSAVKNFTEIASKFSERLRDFDKSNPILLRMMNDQLMFLERAFIDPLGLPDRPFYRHVIYAPSSHNKYAGESFPGIYDALFDIESKVDPSQAWGEVKRQISIATFTVQAAAETLSEVA
# notes: the methods describe only the human PSMA-Fc format; also called cyno PSMA
# B10: human CD3-Flag-Fc protein (Fc fusion, UniProt P07766 23-126, looked up)
# chain: DGNEEMGGITQTPYKVSISGTTVILTCPQYPGSEILWQHNDKNIGGDEDDKNIGSDEDHLSLKEFSELEQSGYYVCYPRGSKPEDANFYLYLRARVCENCMEMD
# notes: also called CD3e; not shown: Flag tag
# What was measured:
# hFc · flag · hPSMA = target: T1, hFc · flag · hPSMA (human, UniProt Q04609 44-750); assay: BLI (OCTET), expression supernatants, hFc.flag.hPSMA
# T1 construct: The order of the parts follows the printed label; also called human PSMA; h PSMA-Fc; not shown: human Fc (hFc); flag tag
# Source text: Supernatants were used to estimate Kd, kon, and koff (or kdis) to human and cynomolgus PSMA using the OCTET® system. […] The parental sdAb is listed as Anti-PSMA wt sdAb.6his in Table 1.
# [1] = target: T2, TriTAC CD3 high aff. - C324; assay: BLI (Octet), cynomolgus albumin (CSA)
# T2 construct: Trispecific single chain: anti-PSMA sdAb, anti-HSA sdAb, anti-CD3 scFv, 6xHis (the tag is part of the entry); also called PSMA TriTAC CD3 high aff; C00324
# [2] = target: T3, Tool TriTAC high aff. - C236; assay: BLI (Octet), cynomolgus albumin (CSA)
# T3 construct: Trispecific single chain: anti-PSMA sdAb, anti-HSA sdAb, anti-CD3 scFv, 6xHis (the tag is part of the entry); also called Tool PSMA TriTAC; C00236
# PSMA TriTAC (HDS)-C363 [3] = target: T4, PSMA TriTAC (HDS)-C363; assay: BLI (Octet), cynomolgus albumin (CSA)
# T4 construct: Trispecific single chain: anti-PSMA sdAb, anti-HSA sdAb, anti-CD3 scFv, 6xHis (the tag is part of the entry); also called PSMA HDS TriTAC C363; C00363
# PSMA TriTAC (HTS)-C364 [4] = target: T5, PSMA TriTAC (HTS)-C364; assay: BLI (Octet), cynomolgus albumin (CSA)
# T5 construct: Trispecific single chain: anti-PSMA sdAb, anti-HSA sdAb, anti-CD3 scFv, 6xHis (the tag is part of the entry); also called PSMA HTS TriTAC C364; C00364
# PSMA-TriTAC (p8)-C362 [5] = target: T6, PSMA-TriTAC (p8)-C362; assay: BLI (Octet), cynomolgus albumin (CSA)
# T6 construct: Trispecific single chain: anti-PSMA sdAb, anti-HSA sdAb, anti-CD3 scFv, 6xHis (the tag is part of the entry); also called PSMA p8 TriTAC C362; C00362
# [6] = target: T2, TriTAC CD3 high aff. - C324; assay: BLI (Octet), cynomolgus CD3
# [7] = target: T3, Tool TriTAC high aff. - C236; assay: BLI (Octet), cynomolgus CD3
# PSMA TriTAC (HDS)-C363 [8] = target: T4, PSMA TriTAC (HDS)-C363; assay: BLI (Octet), cynomolgus CD3
# PSMA TriTAC (HTS)-C364 [9] = target: T5, PSMA TriTAC (HTS)-C364; assay: BLI (Octet), cynomolgus CD3
# PSMA-TriTAC (p8)-C362 [10] = target: T6, PSMA-TriTAC (p8)-C362; assay: BLI (Octet), cynomolgus CD3
# PSMA TriTAC (HDS)-C363 [11] = target: T4, PSMA TriTAC (HDS)-C363; assay: BLI (Octet), cynomolgus PSMA
# PSMA TriTAC (HTS)-C364 [12] = target: T5, PSMA TriTAC (HTS)-C364; assay: BLI (Octet), cynomolgus PSMA
# PSMA TriTAC (HDS)-C363 [13] = target: T4, PSMA TriTAC (HDS)-C363; assay: BLI (Octet), human CD3-Flag-Fc on anti-human IgG Fc biosensors
# PSMA TriTAC (HTS)-C364 [14] = target: T5, PSMA TriTAC (HTS)-C364; assay: as above
# PSMA-TriTAC (p8)-C362 [15] = target: T6, PSMA-TriTAC (p8)-C362; assay: as above
# [16] = target: T2, TriTAC CD3 high aff. - C324; assay: as above
# T6 sequence (chain, as listed by the source): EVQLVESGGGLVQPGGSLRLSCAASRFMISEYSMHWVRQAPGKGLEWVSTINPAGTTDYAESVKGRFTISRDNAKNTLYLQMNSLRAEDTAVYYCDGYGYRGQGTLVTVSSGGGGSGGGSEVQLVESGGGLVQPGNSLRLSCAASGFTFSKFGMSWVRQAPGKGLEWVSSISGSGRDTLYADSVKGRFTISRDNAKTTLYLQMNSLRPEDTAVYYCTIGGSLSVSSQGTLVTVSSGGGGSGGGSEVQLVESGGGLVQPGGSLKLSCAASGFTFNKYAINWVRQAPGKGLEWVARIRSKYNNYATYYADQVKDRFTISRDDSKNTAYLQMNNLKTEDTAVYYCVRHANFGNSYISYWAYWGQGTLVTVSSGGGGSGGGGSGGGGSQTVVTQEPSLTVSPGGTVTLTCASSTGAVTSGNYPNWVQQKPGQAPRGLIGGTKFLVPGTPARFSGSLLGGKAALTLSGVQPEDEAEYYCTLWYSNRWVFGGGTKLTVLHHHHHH
# T1 sequence (Q04609 44-750 limits assumed): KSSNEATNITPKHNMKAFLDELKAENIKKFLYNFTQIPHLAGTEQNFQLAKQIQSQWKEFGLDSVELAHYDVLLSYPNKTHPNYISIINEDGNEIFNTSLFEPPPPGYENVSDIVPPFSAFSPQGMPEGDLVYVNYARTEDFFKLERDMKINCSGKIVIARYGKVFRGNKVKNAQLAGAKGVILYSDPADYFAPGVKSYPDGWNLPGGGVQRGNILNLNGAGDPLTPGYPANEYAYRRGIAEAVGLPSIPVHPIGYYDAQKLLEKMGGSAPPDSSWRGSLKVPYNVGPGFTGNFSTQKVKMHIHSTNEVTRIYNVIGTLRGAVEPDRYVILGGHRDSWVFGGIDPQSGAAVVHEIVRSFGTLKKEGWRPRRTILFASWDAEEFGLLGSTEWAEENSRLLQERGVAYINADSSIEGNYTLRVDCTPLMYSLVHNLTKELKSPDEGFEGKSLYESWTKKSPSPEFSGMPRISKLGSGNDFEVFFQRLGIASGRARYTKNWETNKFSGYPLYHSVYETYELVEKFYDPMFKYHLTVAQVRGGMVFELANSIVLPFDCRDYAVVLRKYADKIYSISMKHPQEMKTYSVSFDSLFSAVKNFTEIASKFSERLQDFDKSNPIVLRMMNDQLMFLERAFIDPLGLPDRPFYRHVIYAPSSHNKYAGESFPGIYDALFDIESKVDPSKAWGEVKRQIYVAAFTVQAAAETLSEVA
binder,measurement,setting,value
B1,Kd,hFc · flag · hPSMA,15 nM
same,koff,hFc · flag · hPSMA,0.0132 s⁻¹
same,kon,hFc · flag · hPSMA,877000 M⁻¹ s⁻¹
B2,Kd,hFc · flag · hPSMA,0.21 nM
same,koff,hFc · flag · hPSMA,0.000197 s⁻¹
same,kon,hFc · flag · hPSMA,936000 M⁻¹ s⁻¹
B3,Kd,hFc · flag · hPSMA,5.6 nM
same,koff,hFc · flag · hPSMA,0.00461 s⁻¹
same,kon,hFc · flag · hPSMA,822000 M⁻¹ s⁻¹
B4,Kd,hFc · flag · hPSMA,6.7 nM
same,koff,hFc · flag · hPSMA,0.00538 s⁻¹
same,kon,hFc · flag · hPSMA,800000 M⁻¹ s⁻¹
B5,Kd,hFc · flag · hPSMA,4.5 nM
same,koff,hFc · flag · hPSMA,0.00248 s⁻¹
same,kon,hFc · flag · hPSMA,556000 M⁻¹ s⁻¹
B6,Kd,hFc · flag · hPSMA,9.5 nM
same,koff,hFc · flag · hPSMA,0.00366 s⁻¹
same,kon,hFc · flag · hPSMA,383000 M⁻¹ s⁻¹
B7,Kd,[1],9.7 nM
same,Kd,[2],25.4 nM
same,Kd,PSMA TriTAC (HDS)-C363 [3],8.4 nM
same,Kd,PSMA TriTAC (HTS)-C364 [4],8.6 nM
same,Kd,PSMA-TriTAC (p8)-C362 [5],6.6 nM
B8,Kd,[6],5.8 nM
same,Kd,[7],4.7 nM
same,Kd,PSMA TriTAC (HDS)-C363 [8],5.2 nM
same,Kd,PSMA TriTAC (HTS)-C364 [9],3.8 nM
same,Kd,PSMA-TriTAC (p8)-C362 [10],4.3 nM
B9,Kd,PSMA TriTAC (HDS)-C363 [11],540 nM
same,Kd,PSMA TriTAC (HTS)-C364 [12],663 nM
B10,Kd,PSMA TriTAC (HDS)-C363 [13],8 nM
same,Kd,PSMA TriTAC (HTS)-C364 [14],7.7 nM
same,Kd,PSMA-TriTAC (p8)-C362 [15],8.3 nM
same,Kd,[16],7.4 nM

# Source: patent US20180161428A1 (HARPOON THERAPEUTICS, published 2018)
